Source: article PMC7283332, “convertibleCARs: A chimeric antigen receptor system for flexible control of activity and antigen targeting” (Communications Biology, 2020)

Target: T1, ULBP2 α1α2 domain, C-terminal 6×-His (human, UniProt Q9BZM5 29-212)
T1 construct: ULBP2, human, α1α2 domains, UniProtKB Q9BZM5 residues 29-212; monomeric protein; also called wild-type ULBP2; MIC-His ligand; source: Expi293 supernatant, purified (Ni-NTA); not shown: His6, C-terminal, kept
T1 sequence (looked up): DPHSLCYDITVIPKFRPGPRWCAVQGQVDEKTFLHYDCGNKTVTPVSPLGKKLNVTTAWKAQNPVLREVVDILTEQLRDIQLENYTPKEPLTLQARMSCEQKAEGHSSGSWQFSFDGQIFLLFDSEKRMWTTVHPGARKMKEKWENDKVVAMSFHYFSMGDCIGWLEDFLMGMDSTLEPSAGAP
Assay: BLI; FortéBio Octet; Fc-wtNKG2D, Fc-iNKG2D.YA or Fc-iNKG2D.AF captured on anti-human IgG Fc capture (AHC) biosensor tips; titration series of monomeric MIC-His ligands or monomeric ULBP2 variants
Conditions: both partners purified

B1: Fc-wtNKG2D (Fc fusion, human, UniProt P26718 78-216, looked up)
chain: FLNSLFNQEVQIPLTESYCGPCPKNWICYKNNCYQFFDESKNWYESQASCMSQNASLLKVYSKEDQDLLKLVKSYHWMGLVHIPTNGSWQWEDGSILSPNLLTIIEMQKGDCALYASSFKGYIENCSTPNTYICMQRTV
notes: NKG2D wild-type ectodomain, human, UniProtKB P26718 residues 78-216; NKG2D is fused to the C-terminus of the Fc through a factor Xa site linker Ile-Glu-Gly-Arg (IEGR); also called wild-type NKG2D; source: Expi293 cells, secreted, purified (Protein A, SEC); not shown: Fc (human IgG1), N-terminal, kept
binding result: binds
